# According to the nanobody polyreactivity screen of Harvey et al. (2022):
# Experiment: yeast display, Sf9 membrane polyspecificity reagent, FACS + sequencing; frameworks hold sequencing errors
# How it was run: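 Galactose induction of a Saccharomyces cerevisiae BJ5465 synthetic nanobody display library ran 36–48 hours. The cells were then stained for 1 hour at 4 °C with 10% biotinylated, detergent-solubilized Sf9 membrane reagent, pulled down on streptavidin microbeads and FACS-sorted into low and high (top ~1%) gates on expression and reagent-binding fluorescence. Labels for polyreactivity follow the gate of origin.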
row,Sequence,polyreactivity (PSR sort gate)
1,QVQLVESGGGLVQAGGSLRLSCAASGRTFPRYTMGRYRQAPRKERELVAASATGGSTNYADSVKGRFTISRDNAKNTVYLHMNSLKPEDTAVYYCAARPYSNRYVLGVYYWGKGTQVTVSS,high polyreactivity
2,QVQLVESGGGLVQAGGSLRLSCAASGRIFSWYTMGWYRQAPGKERELVAGITWSGGSTYYADSVKGRFTISRDNAKNTVYLQMNSLKPEDTAVYYCAAGGVSFGYYKYYYWGQGTQVTVSS,high polyreactivity
3,QVQLVESGGGLVQAGVSLRLSCAASGSTFTYYAMGWYRQAPGKERELVAAITNSGGSTYYAVSVKGRFTISRDNAKNTVYLQMNSLKPEDTAVYYCAATRVDSDDRTRFYYWGQGTQVTVSS,high polyreactivity
4,QVQLVESWGGLVQAGGSLRLSCAASGGTFSANAMGWYRQAPGKERELVAAISTSGGSTHYADSVKGRFTISRDSAKNTVYLQMNSLNPEDTAVYYCAARLYSYRRQYGYWGHGTQVTVSS,high polyreactivity
5,QVQLVESGGGLVQAGGSLRLSCATSGSIFVFNAMGWYRQAPGKERELVAAIDTSDDITYYADSVKGRFTISRDNAKNTVYLQMISLKPEDTAVYYCNADTYGLVRYYIYHYEFDYWGQGTQVTVSS,high polyreactivity
6,QVQLVESGGGFVQAGVSLRLSCAASGSIFVVYGMGWYRQAPGKERELVAAISGGITNYADSVKGLFTISRDNAKNTVYLLMNSLKPEDTAVYYCATVDGAYQYTYDYWGQGTQVTVSS,low polyreactivity
7,QVQLVESGGGLVQAGGILRLSCAASGFTFNRNAMGWYRQAPGKERELVAAISWSGTSTYYADSVKGRFTISRDNAKTTVYLQMNSLKPEDTAVYYCAARVKGQWNTYDSWGQGTQVTVST,high polyreactivity
8,QVQLVESGGGLVQAGGSLRLSCAASGFTFSRNAMGWYRQAPGKERELDAAITSSGGSTYYADSVKGRFTISRDNAKNTVYLQMNSLKPEDTAVYYCNVVPIWRKYLSQIYGYWGQGTQVTVSS,high polyreactivity
9,QVQLVESGGGLLQAGGSLRLSCAASGFIFRRYTLGWYRQAPGKERELVAAITSSGARTYYADSVKGRFTISRDNAKNTVYLQMTSLKPEDTAVYYCYTSYRKKKRYYYWGQGTQVTVSS,high polyreactivity
10,QVQLVESGGGLVQAGGSLRLSCAASGFIFGLYGMGWYRPAPGKERELVAAISTSSGITYYADSVKGRFTISRDNAKNTVYLQMNSLKPEDTAVYYCAARGHYYDYWGQGTQVTVSS,low polyreactivity
11,QVQLVESGGGLVQAGGSLRLSCAASGIIFGPYAMGWYRQAPGKEWELVAAITWSGGGTYYADSVKGRFTISRDNAKNTVYLQMNSLKPEDTAVYYCAKYFPAGYYYWGQGTQVTVSS,low polyreactivity
12,QVQLVESGGGLVQAGGSLRLSCAASGYIFERNAMGWYRQAPGKERELVAAITDDGDDTYYADSVKGRFTISRDNAKNTVYLQMNSLKAEDTAVYYCAKDLYYGDYYYWGQGTQVTVSS,low polyreactivity
13,QVQLVESGGGLVQAGGSLRLSCAASGRIFDPYAMGWYRQAPGKEREVVASISWSGGRTYYADSVKGRFTISRDNAKNTVYLQMNSLKPEDTAVYYCAARQWYRYKVRIDYWGQGTQVTVSS,high polyreactivity
14,QVQLVESGGGLVQAGGSLRLSCAASGIIFGENAMGWYRQAPGKERELVAAINSVGSTYYADSVKGRFTISRDNAKNTVYLQMNSLKPEDTAVYYCNARLAKVRVKDDYWGQGTQVTVSS,low polyreactivity
15,QVHLVESRGGLVQAGGSLRLSCAASGMGWNRHAPGKERELVATIPWSDGITYADSVKGRFTISRDNAKNTVYLQMNSLKQEVTAVYYCNADWDQTGTVFFSFGLREMDSWGQGTQVTVSS,low polyreactivity
16,QVQLVESGAGLVQAGRSLRLSCASSGITIKRYAMGWYSQAPGKESELVAAINFGAGNTYYADSVKGRFTISRDNAKNPVYLQMNSLKPEDSAVYYCATTARHRYGEYYYWGLGTQVTVSS,high polyreactivity
17,QVQLVESGGGLVQAGGSLRLSCAASGRIFNYYAMGWYRQAPGKERELVAAISKRGGRTYYADSVKGRFTISRDNAKNTVYLQMNSLKPEDTAVYYCNKGFLPSWFTYPYKYYYWGQGTQVTVSS,low polyreactivity
18,QVQLVESGGGLVQAGGSLRLSCAASGSTLQGYAMGWYRQAPGKERELVAAISRSGGSTYYADSVKGRFTISRDNAKNTVYLQMNSLKPEDTAVYYCNRVAGGRRKGPWSYQYDYWGQGPQVTVSS,high polyreactivity
19,QVQLVESGGGLVQAGGSLRLICAASGRIFQIYAMGWYRQAPGKEREVVAAISSGGTTYYADSVKGRFTISRDNAKNTVYLQMNSLKPEDTAVYYCAAVAWDLYSDGQEYNYWGQGPQVTVSS,high polyreactivity
20,QVQLVESGGGLVQAGGSLRLSCAASGRTFGPYAMGWYRQAPGKERELVAAITSSGGSTYYADSVKGRFTISRDNAKNTVYLQMNSLKPEDTAVYYCNNLYWRQSQDYDYWGQGTQVTVSS,low polyreactivity
21,QVQLVESGGGLVQAGGSLRLSCAASGRIFIYNAMGWYRQAPGKETELVAAISSGGDTYYADSVKGRFTISRDNAKNTVYLQMNSLKPEDTAVYYCAARVYRYRGYDSWGQGTQVTVSS,high polyreactivity

row,Sequence,polyreactivity (PSR sort gate)
1,QVQLVESGGGLVQAGGSLRLSCAASGLIFYKNAMGSYRQAPGKEREFVAAISRSGASTYYSDSVMGRFTISRDYAKNTVYLQMKSLKPEVTEVYLCAARAGANYRMDYWGQGTQVTVSS,high polyreactivity
2,QVQLVESGGGLVQAGGSLRLSCAASGSTFQFYAMGWYRQAPGKERELVAVITSGDDTNYADSVKGRFTISRDNAKNTVYLQMNSLKPEDTAVYYCDVDYILVYTRVRSYWFDYWGQGTQVTVSS,low polyreactivity
3,QVQLVESGGGLVQAGGSLRLSCTASGSIFSHNSMGWYRQAPGKERELVAAINQNGGITYYADSVKGRFTISRDNAKNTVYLQMNSLKPEDTAVYYCAARRYYRRPHKYDYWGQGTQVTVSS,high polyreactivity
4,QVQLVESGGGLVQAGGSLRLSCAASGRTFSYNAMGWYRPAPGKERELVAVITYSGGSTYYADSVKGRFTISRDNAKNTVYLQMNSLKPEDTAVYYCNADGYRPYQNGYDYWGQGTQVTVSS,high polyreactivity
5,QVQLVESGGGLVQAGGSLRLSCAASGSIFSDYTMGWYRQAPGKERELVAAISGIGGSTYYADSVKGRFTISRDNAKNTVYLQMNSLTPEDTAVYYCAPDDYYYPYFSHDYWGQGTQVTVSS,low polyreactivity
6,QVQLVESGGGLVQAGGSLRLSCAASGIFRSNAMGWYRQAPGKERELVAGISSGGGTNYADSVKGRFTISRDNAKNTVYLQMNSLKPDDTAVYYCAKERIYFYYWYVYTDLVYEYDYWGQGTQVTVSS,low polyreactivity
7,QVQLVESGGGLVQAGGSLRLSCAASGIIFRGYAMGWDRQAPGQERELVAVIDRSGARTNYADSVTGRFTISRDNAKNTVYLQMNSLKPEDTAVYYCAASGVRAYSGLGYWGQGSQVTVSS,high polyreactivity
8,QVQLVESGGGLVQAGGSLRLSCAASGIIFGSYAMGWYRQAPGKEREFVADISKGDSTYYADSVKGRFTISRDNAKNTVYLQMNSLKPEDTAVYYCAVDSWRRALWYYGRYGYWGQGTQVTVSS,low polyreactivity
9,QVQLVESGGGLVQAGGSLRLSCAASGSTFEIYAMGWYRQAPGKERELVATITWSGGSTYYADSVKGRFTISRDNAKNTVYLQMNSLKPEDTAVYYCAAESIYYPVAQYYYSFEYWGQGTQVTVSS,low polyreactivity
10,QVQLVESGGGLVQAGGSLRLSCAASGLTFGGYAMGWYRQAPGKERELVAAISRSGGSTYYADSVKGRFTISRDNAKNTVYLQMNSLQPEDTAVYYCNGGRGTKYDYWGQGTQVTVSS,low polyreactivity
11,QVQLVESGGGLVQAGGSLRLSCAASGSTFTLNAMGWYRQAPGKERELVADISWSSGRTYYADSVKGRFTISRDNAKNTVYLQMNSLKPEDTAVYYCNKDDNSYGLNYWGQGTQVTVSS,low polyreactivity
12,QVQLVESGGGLVQAGGSLRLSCAASGNFFVLYAMGWYRQAPGKERELVASITSDGITYYADSGKGRFTISRDNAKNTVYLQMNSLKPEDTAVYYCAVDRSYRYLPRGDYWGQGTQVTVSS,low polyreactivity
13,QVQLVESGGRLVQEGGSLRLSCAASGSSLRSYAMGRYRQAPGKERELLAAISGSGDSTYYADSVKGRFTISRDNAKNTVYLQMNSLKPEDTAVYYCNAVFAFNGYVYWGQGTQVTVSS,low polyreactivity
14,QVQLVESGGGLVQAGGSLRLSCAASGYIFVKNAMGWYRQAPGKERELVAAISTRGGRTYYADSVKVRFTISRDNAKNTVSLQMNSLKPEDTAVYYCAAVHHTSYYDANSYGYWGQGTQVTVSS,high polyreactivity
15,QDQLVESCGGLVQARGSLRLSCAASGFTFRYNAMGWYRQAPGKERELVAAITGSTGTTYYADSVKGRFTISRDNAKNTVYLQMNSLKPEDTAVYYCAATFRDQHGSLYGYWGQGSQVTVSS,high polyreactivity
16,QVQLVESGGGLVQAGGSLRLSCAASGSTFQRYAMGGYRQAPGKERQLVAAISSGGSTYYADSVKGRFTISRDNAKNTVYLQINSLKPEDTAVYYCAARIYVVWSSRVYWMYYWGQGTQVTVSS,high polyreactivity
17,LVHLQESGGGLVHAGGGLRLSCAASGNIFTYVIMGWYRQPPVKERELVAAITYGTITNYADSVKGPFTISRDNAKITVDLQMKCLKPEDSAEYHCAVQSPRIEPRLYYWGQGTEVTVSS,high polyreactivity
18,QVQLVESGGGLVQAGGSLRLSCAASGRIFYHYPMGWYRQAPGKEREFVAAISLRAGSTYYADSVKGRFTISRYNAKNNVYLQMNSLKPEDTAFYYCAARRASYVTSRYDYWGQGTQVTVSS,high polyreactivity
19,QVQLVESGGGLVQAGGSLRLSCAASGSTFIVNAMGWYRQAPGKERELVAAITEDGDTTYYADSVKGRFTISRDHAKKTVYLQMNSLKPEDTAVYYCAARTYRGLADDYWGQGTQVTVSS,high polyreactivity
20,QVQLVESGGGLVQAGGSLRLSCAASGSIFYRNTMGWYRQAPGKERELVAAITTSGGSTYYADSVKGRFTISRDNAKNTVYLQMNSLKPEDTAVYYCAARTWERWYRYYYWGQGTQVTVSS,high polyreactivity
